The results in this text go back to US20230140797A1 (published 2023).

Assay [1] deals with T1, human FcγRIIb extracellular domain with C-terminal His tag (human, UniProt P31994 43-217).
T1 sequence (looked up): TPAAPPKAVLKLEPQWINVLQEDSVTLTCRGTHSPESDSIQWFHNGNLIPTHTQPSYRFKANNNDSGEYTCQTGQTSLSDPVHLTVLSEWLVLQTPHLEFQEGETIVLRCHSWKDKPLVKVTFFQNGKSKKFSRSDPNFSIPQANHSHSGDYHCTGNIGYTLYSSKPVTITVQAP
Nature of the assay: SPR. On the technique in general: Surface plasmon resonance follows binding to a sensor surface in real time, without labels.

Assay [2] deals with T1, human FcγRIIb extracellular domain with …. Nature of the assay: SPR. This is another data set of the same source.
Assay [3] has as its target T2, human FcγRIIb extracellular domain with C-terminal His tag (human, UniProt P31994 43-217).
T2 sequence (looked up): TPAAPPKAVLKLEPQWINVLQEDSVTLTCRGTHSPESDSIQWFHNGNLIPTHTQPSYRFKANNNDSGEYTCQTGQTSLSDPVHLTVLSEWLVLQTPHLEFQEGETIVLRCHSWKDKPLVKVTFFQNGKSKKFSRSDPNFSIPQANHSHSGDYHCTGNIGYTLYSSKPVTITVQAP
Nature of the assay: SPR Biacore, ratio of KDs.

B1: IL6R-BP565/IL6R-L (antibody, human IgG1, kappa)
heavy: QVQLQESGPGLVKPSETLSLTCAVSGHSISHDHAWSWVRQPPGEGLEWIGFISYSGITNYNPSLQGRVTISRDNSKNTLYLQMNSLRAEDTAVYYCARSLARTTAMDYWGEGTLVTVSSASTKGPSVFPLAPSSKSTSGGTAALGCLVKDYFPEPVTVSWNSGALTSGVHTFPAVLQSSGLYSLSSVVTVPSSSLGTQTYICNVNHKPSNTKVDKKVEPKSCDKTHTCPPCPAPDLLGDDSVFLFPPKPKDTLMISRTPEVTCVVVDVAEEDGEVKFNWYVDGVEVHNAKTKPREEQDNSTYRVVSVLTVLHQDWLNGKEYKCKVSNKALPRPIEKTISKAKGQPREPQVYTLPPSRDELTKNQVSLTCLVKGFYPSDIAVEWESNGQPENNYKTTPPVLDSDGSFFLYSKLTVDKSRWQQGNVFSCSVMHEALHNHYTQESLSLSP
light: not shown
With B1, in assay [1], the “KD (IIaH)/KD (IIb)” value worked out at 856. In assay [2], the “KD (IIaR)/KD (IIb)” value is 41.5.

B2: IL6R-2B169/IL6R-L (antibody, human IgG1, kappa)
heavy: QVQLQESGPGLVKPSETLSLTCAVSGHSISHDHAWSWVRQPPGEGLEWIGFISYSGITNYNPSLQGRVTISRDNSKNTLYLQMNSLRAEDTAVYYCARSLARTTAMDYWGEGTLVTVSSASTKGPSVFPLAPSSKSTSGGTAALGCLVKDYFPEPVTVSWNSGALTSGVHTFPAVLQSSGLYSLSSVVTVPSSSLGTQTYICNVNHKPSNTKVDKKVEPKSCDKTHTCPPCPAPELLGGDSVFLFPPKPKDTLMISRTPEVTCVVVDVSHEDPEVKFNWYVDGVEVHNAKTKPREEQYNSTYRVVSVLTVLHQDWLNGKEYKCKISNKALPAPIEKTISKAKGQPREPQVYTLPPSRDELTKNQVSLTCLVKGFYPSDIAVEWESNGQPENNYKTTPPVLDSDGSFFLYSKLTVDKSRWQQGNVFSCSVMHEALHNHYTQESLSLSP
light: not shown
For B2, the “KD (IIb) of the parent polypeptide/KD (IIb) of the altered polypeptide” value (from here on “KD (IIb) of the parent polypeptide/KD”) in assay [3] was 2.6 fold (parent IL6R-B3/IL6R-L).

B3: IL6R-BP567/IL6R-L (antibody, human IgG1, kappa)
heavy: QVQLQESGPGLVKPSETLSLTCAVSGHSISHDHAWSWVRQPPGEGLEWIGFISYSGITNYNPSLQGRVTISRDNSKNTLYLQMNSLRAEDTAVYYCARSLARTTAMDYWGEGTLVTVSSASTKGPSVFPLAPSSKSTSGGTAALGCLVKDYFPEPVTVSWNSGALTSGVHTFPAVLQSSGLYSLSSVVTVPSSSLGTQTYICNVNHKPSNTKVDKKVEPKSCDKTHTCPPCPAPDLLGGDSVFLFPPKPKDTLMISRTPEVTCVVIDVAEEDGEVKFNWYVDGVEVHNAKTKPREEQDNSTYRVVSVLTVLHQDWLNGKEYKCKVSNKALPAPIEKTISKAKGQPREPQVYTLPPSRDELTKNQVSLTCLVKGFYPSDIAVEWESNGQPENNYKTTPPVLDSDGSFFLYSKLTVDKSRWQQGNVFSCSVMHEALHNHYTQESLSLSP
light: not shown
Take B3: in assay [1], the “KD (IIaH)/KD (IIb)” value amounted to 1230. Further, in assay [2], the “KD (IIaR)/KD (IIb)” value came to 64.4.

B4: IL6R-BP078/IL6R-L (antibody, human IgG1, kappa)
heavy: QVQLQESGPGLVKPSETLSLTCAVSGHSISHDHAWSWVRQPPGEGLEWIGFISYSGITNYNPSLQGRVTISRDNSKNTLYLQMNSLRAEDTAVYYCARSLARTTAMDYWGEGTLVTVSSASTKGPSVFPLAPSSKSTSGGTAALGCLVKDYFPEPVTVSWNSGALTSGVHTFPAVLQSSGLYSLSSVVTVPSSSLGTQTYICNVNHKPSNTKVDKKVEPKSCDKTHTCPPCPAPELLGGDSVFLFPPKPKDTLMISRTPEVTCVVVDVSHEDPEVKFNWYVDGVEVHNAKTKPREEQYNSTYRVVSVLTVLHQDWLNGKEYKCKVSNKALPMPIEKTISKAKGQPREPQVYTLPPSRDELTKNQVSLTCLVKGFYPSDIAVEWESNGQPENNYKTTPPVLDSDGSFFLYSKLTVDKSRWQQGNVFSCSVMHEALHNHYTQESLSLSP
light: not shown
For B4, the “KD (IIb) of the parent polypeptide/KD” value in assay [3] is 2.8 fold (parent IL6R-B3/IL6R-L).

B5: IL6R-BP568/IL6R-L (antibody, human IgG1, kappa)
heavy: QVQLQESGPGLVKPSETLSLTCAVSGHSISHDHAWSWVRQPPGEGLEWIGFISYSGITNYNPSLQGRVTISRDNSKNTLYLQMNSLRAEDTAVYYCARSLARTTAMDYWGEGTLVTVSSASTKGPSVFPLAPSSKSTSGGTAALGCLVKDYFPEPVTVSWNSGALTSGVHTFPAVLQSSGLYSLSSVVTVPSSSLGTQTYICNVNHKPSNTKVDKKVEPKSCDKTHTCPPCPAPDLLGGDSVFLFPPKPKDTLMISRTPEVTCVVIDVAEEDGEVKFNWYVDGVEVHNAKTKPREEQYNSTYRVVSVLTVLHQDWLNGKEYKCKVSNKALPAPIEKTISKAKGQPREPQVYTLPPSRDELTKNQVSLTCLVKGFYPSDIAVEWESNGQPENNYKTTPPVLDSDGSFFLYSKLTVDKSRWQQGNVFSCSVMHEALHNHYTQESLSLSP
light: not shown
In the case of B5, the “KD (IIaH)/KD (IIb)” value in assay [1] was 748. In addition, in assay [2], the “KD (IIaR)/KD (IIb)” value was determined as 46.1.

B6: IL6R-2B128/IL6R-L (antibody, human IgG1, kappa)
heavy: QVQLQESGPGLVKPSETLSLTCAVSGHSISHDHAWSWVRQPPGEGLEWIGFISYSGITNYNPSLQGRVTISRDNSKNTLYLQMNSLRAEDTAVYYCARSLARTTAMDYWGEGTLVTVSSASTKGPSVFPLAPSSKSTSGGTAALGCLVKDYFPEPVTVSWNSGALTSGVHTFPAVLQSSGLYSLSSVVTVPSSSLGTQTYICNVNHKPSNTKVDKKVEPKSCDKTHTCPPCPAPELLGGDSVFLFPPKPKDTLMISRTPEVTCVVVDVSHEDPEVKFNWYVDGVEVHNAKTKPREEQDNSTYRVVSVLTVLHQDWLNGKEYKCKVSNKALPAPIEKTISKAKGQPREPQVYTLPPSRDELTKNQVSLTCLVKGFYPSDIAVEWESNGQPENNYKTTPPVLDSDGSFFLYSKLTVDKSRWQQGNVFSCSVMHEALHNHYTQESLSLSP
light: not shown
As to B6, in assay [3], the “KD (IIb) of the parent polypeptide/KD” value was 2.1 fold (parent IL6R-B3/IL6R-L).

B7: IL6R-2B002/IL6R-L (antibody, human IgG1, kappa)
heavy: QVQLQESGPGLVKPSETLSLTCAVSGHSISHDHAWSWVRQPPGEGLEWIGFISYSGITNYNPSLQGRVTISRDNSKNTLYLQMNSLRAEDTAVYYCARSLARTTAMDYWGEGTLVTVSSASTKGPSVFPLAPSSKSTSGGTAALGCLVKDYFPEPVTVSWNSGALTSGVHTFPAVLQSSGLYSLSSVVTVPSSSLGTQTYICNVNHKPSNTKVDKKVEPKSCDKTHTCPPCPAPDLLGGDSVFLFPPKPKDTLMISRTPEVTCVVVDVSHEDPEVKFNWYVDGVEVHNAKTKPREEQYNSTYRVVSVLTVLHQDWLNGKEYKCKVSNKALPAPIEKTISKAKGQPREPQVYTLPPSRDELTKNQVSLTCLVKGFYPSDIAVEWESNGQPENNYKTTPPVLDSDGSFFLYSKLTVDKSRWQQGNVFSCSVMHEALHNHYTQESLSLSP
light: not shown
In the case of B7, the “KD (IIb) of the parent polypeptide/KD” value in assay [3] was 3.3 fold (parent IL6R-B3/IL6R-L).

B8: IL6R-2B172/IL6R-L (antibody, human IgG1, kappa)
heavy: QVQLQESGPGLVKPSETLSLTCAVSGHSISHDHAWSWVRQPPGEGLEWIGFISYSGITNYNPSLQGRVTISRDNSKNTLYLQMNSLRAEDTAVYYCARSLARTTAMDYWGEGTLVTVSSASTKGPSVFPLAPSSKSTSGGTAALGCLVKDYFPEPVTVSWNSGALTSGVHTFPAVLQSSGLYSLSSVVTVPSSSLGTQTYICNVNHKPSNTKVDKKVEPKSCDKTHTCPPCPAPELLGGDSVFLFPPKPKDTLMISRTPEVTCVVVDVSHEDPEVKFNWYVDGVEVHNAKTKPREEQYNSTYRVVSVLTVLHQDWLNGKEYKCKMSNKALPAPIEKTISKAKGQPREPQVYTLPPSRDELTKNQVSLTCLVKGFYPSDIAVEWESNGQPENNYKTTPPVLDSDGSFFLYSKLTVDKSRWQQGNVFSCSVMHEALHNHYTQESLSLSP
light: not shown
In the case of B8, the “KD (IIb) of the parent polypeptide/KD” value in assay [3] is 4 fold (parent IL6R-B3/IL6R-L).
